Results: paper PMC9122598, “NASP maintains histone H3–H4 homeostasis through two distinct H3 binding modes” (Nucleic Acids Research, 2022)

Experiments:
[1] = biological target: frog NASP.Sc dimer (X. laevis NASP.S a.a. 23–495, Δ97–314; 'NASP.S core') (Xenopus laevis) (UniProt P06180); experiment: SEC-MALS; single purified protein on Superdex 200 Increase 10/300 GL; 20 mM Tris pH 7.5, 0.5 M NaCl; room temperature
[2] = biological target: Histone H3 (MBP fusion) 116-135 (Homo sapiens) (UniProt P68431); details: cited from earlier work
[3] = biological target: sNASPc dimer (human sNASP a.a. 30–340, Δ101–159; 'sNASP core') (human) (UniProt P49321); experiment: SEC-MALS; single purified protein on Superdex 200 Increase 10/300 GL; 20 mM Tris pH 7.5, 0.5 M NaCl; room temperature

Chain of sNASP (P49321 2-788): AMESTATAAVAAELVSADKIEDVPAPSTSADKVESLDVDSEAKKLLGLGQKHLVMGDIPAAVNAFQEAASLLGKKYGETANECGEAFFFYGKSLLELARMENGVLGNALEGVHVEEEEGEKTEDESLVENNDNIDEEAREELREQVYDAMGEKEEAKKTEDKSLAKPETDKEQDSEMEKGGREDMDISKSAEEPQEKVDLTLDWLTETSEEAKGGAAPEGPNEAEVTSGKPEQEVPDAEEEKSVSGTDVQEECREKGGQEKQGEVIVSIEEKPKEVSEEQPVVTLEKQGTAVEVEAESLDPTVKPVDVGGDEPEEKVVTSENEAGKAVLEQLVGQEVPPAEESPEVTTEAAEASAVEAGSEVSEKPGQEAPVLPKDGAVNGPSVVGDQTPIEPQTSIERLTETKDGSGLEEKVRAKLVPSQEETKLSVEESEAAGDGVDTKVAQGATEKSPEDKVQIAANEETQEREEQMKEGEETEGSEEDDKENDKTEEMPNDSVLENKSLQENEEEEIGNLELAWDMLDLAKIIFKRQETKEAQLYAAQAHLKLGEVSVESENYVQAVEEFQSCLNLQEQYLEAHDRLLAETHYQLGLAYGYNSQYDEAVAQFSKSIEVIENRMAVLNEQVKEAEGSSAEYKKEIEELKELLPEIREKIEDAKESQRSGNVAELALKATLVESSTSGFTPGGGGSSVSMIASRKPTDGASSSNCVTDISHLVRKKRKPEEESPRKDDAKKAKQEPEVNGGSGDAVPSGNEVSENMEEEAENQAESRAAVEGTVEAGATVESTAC

With “frog NASP.Sc dimer (X. laevis NASP.S a.a. 23–495, Δ97–314; 'NASP.S core') (from UniProt P06180 23-495) (domain or fragment)” the stoichiometry N [1] was 2.
For sNASP (from UniProt P49321), the Kd [2] is given as 61 nM.
Substance “sNASPc dimer (human sNASP a.a. 30–340, Δ101–159; 'sNASP core') (from UniProt P49321-2 30-340) (domain or fragment)” has a stoichiometry N [3] of 2.
